Patent US8617548B2 (priority 2006, dated 2013)
Where two headings read alike, the source gives them in different places.

B1: ETI-204 (antibody, chains of the INN, looked up, V domains shown)
VH: QVQLQQSGPELKKPGASVKVSCKDSGYAFSSSWMNWVRQAPGQGLEWIGRIYPGDGDTNYNGKFQGRVTITADKSSSTAYMELSSLRSEDTAVYFCARSGLLRYAMDYWGQGTLVTVSS
VL: DIQMTQSPSSLSASVGDRVTITCRASQDIRNYLNWYQQKPGKAVKLLIYYTSRLLPGVPSRFSGSGSGTDYSLTISSQEQEDIGTYFCQQGNTLPWTFGQGTKVEIR

Assays:
B. anthracis = tested on: B. anthracis; set-up: species or system New Zealand White (NZW) rabbits; settings: rabbit, in vivo
[1] = cynomolgus monkey, in vivo

Row | Molecule | Blood sample, B. anthracis positive culture, Study Day 34 (end of study) (B. anthracis) | Blood sample, B. anthracis positive culture, moribund euthanized or found dead (B. anthracis) | Tissue (spleen) sample, B. anthracis positive culture, Study Day 34 (end of study) (B. anthracis) | Tissue (spleen) sample, B. anthracis positive culture, moribund euthanized or found dead (B. anthracis) | bioavailability of IM anti-PA as compared to IV administration [1] | clearance (in words) [1] | volume of distribution at a steady-state (in words) [1] | AUC (0-inf) dose dependency (in words) ([1]; im, 10 mg/kg) | Blood sample, B. anthracis positive culture, Study Day 34 (end of study) (B. anthracis; iv) | Tissue (spleen) sample, B. anthracis positive culture, Study Day 34 (end of study) (B. anthracis; iv)
1 | C[C@H]1COc2c(N3CCN(C)CC3)c(F)cc3c(=O)c(C(=O)O)cn1c23 [Levofloxacin, levofloxacin, reference compound] | 0/4 | 8/8 | 0/4 | 7/8 |  |  |  |  |  | 
2 | B1 | 0/4 |  | 0/4 |  | 83% | lower clearance | small volume of distribution | linear by dose | 0/4 | 0/4
